The record followed here is patent US20120058120A1, “Targets for Growth Factor Signalling and Methods of Therapy” (priority 2009, published 2012).

The target of one data set is T1, FXIII (Homo sapiens, UniProt P00488).
T1 sequence (P00488 1-732): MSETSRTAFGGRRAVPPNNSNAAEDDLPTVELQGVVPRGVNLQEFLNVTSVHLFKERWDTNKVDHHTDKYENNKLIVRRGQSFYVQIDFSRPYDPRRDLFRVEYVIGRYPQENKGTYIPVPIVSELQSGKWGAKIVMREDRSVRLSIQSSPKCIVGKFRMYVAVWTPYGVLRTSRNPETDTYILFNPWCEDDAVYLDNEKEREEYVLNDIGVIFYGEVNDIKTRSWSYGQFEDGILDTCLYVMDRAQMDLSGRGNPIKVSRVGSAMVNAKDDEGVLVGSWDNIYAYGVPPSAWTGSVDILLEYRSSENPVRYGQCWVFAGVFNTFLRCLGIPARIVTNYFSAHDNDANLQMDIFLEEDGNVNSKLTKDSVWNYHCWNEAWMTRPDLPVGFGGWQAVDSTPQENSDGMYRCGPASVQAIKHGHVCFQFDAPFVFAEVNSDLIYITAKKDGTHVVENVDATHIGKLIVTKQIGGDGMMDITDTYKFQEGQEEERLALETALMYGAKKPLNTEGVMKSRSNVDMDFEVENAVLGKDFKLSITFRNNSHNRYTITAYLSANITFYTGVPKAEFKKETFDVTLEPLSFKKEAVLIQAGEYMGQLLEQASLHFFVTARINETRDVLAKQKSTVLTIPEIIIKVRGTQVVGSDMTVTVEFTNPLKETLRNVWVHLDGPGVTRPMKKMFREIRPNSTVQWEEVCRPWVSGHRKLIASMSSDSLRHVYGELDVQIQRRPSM
In words: IGF-I incubated with FXIII and PEG functionalized with Q- or K-donor TG substrate peptide, IGF-I Western blot. Format: biochemical. The note with it: after 1 h; Q-donor vs K-donor PEG. On the procedure: FIG. 1 (a) IGF-I Western blot after reaction for 60 minutes with FXIII and PEG derivatized with a glutamine (left lane) or lysine FXIII substrate (right lane). […] (b) 3D structure of IGF-I, with the putative FXIII site at the D domain shown relative to residues identified as important for receptor binding.
In the present experiments, IGF-I was incubated with FXIII and PEG functionalized with either a glutamine (Q)- or lysine (K)-donor TG substrate peptide.

In data set [1] the target is T2, TG2 (Homo sapiens, UniProt P21980).
T2 sequence (P21980 1-687): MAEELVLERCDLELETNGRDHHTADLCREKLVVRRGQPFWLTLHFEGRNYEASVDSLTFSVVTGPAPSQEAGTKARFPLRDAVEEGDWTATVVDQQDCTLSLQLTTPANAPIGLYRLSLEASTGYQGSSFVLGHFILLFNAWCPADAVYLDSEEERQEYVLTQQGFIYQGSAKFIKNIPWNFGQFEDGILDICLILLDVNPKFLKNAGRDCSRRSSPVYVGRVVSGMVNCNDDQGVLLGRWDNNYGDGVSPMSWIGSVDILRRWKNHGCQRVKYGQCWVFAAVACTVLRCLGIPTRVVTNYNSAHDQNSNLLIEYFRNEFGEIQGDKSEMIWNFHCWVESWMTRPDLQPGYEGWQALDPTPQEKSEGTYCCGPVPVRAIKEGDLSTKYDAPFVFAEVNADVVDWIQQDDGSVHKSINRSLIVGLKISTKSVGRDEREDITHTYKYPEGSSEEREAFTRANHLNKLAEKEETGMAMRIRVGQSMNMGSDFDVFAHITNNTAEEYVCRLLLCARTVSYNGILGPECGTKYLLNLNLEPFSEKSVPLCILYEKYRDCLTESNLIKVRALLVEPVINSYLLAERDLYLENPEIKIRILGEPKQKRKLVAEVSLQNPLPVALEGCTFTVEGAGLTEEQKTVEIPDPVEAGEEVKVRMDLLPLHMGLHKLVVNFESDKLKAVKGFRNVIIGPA
In words: TG2-catalysed crosslinking of IGF-I to recombinant extracellular domain of IGF1R, IGF-I Western blot. It is filed as biochemical. The note with it: TG2 0.70 μM, IGF-I 25 μg/mL, IGF1R 25 μg/mL, 1 hour, 1 mM CaCl2, pH 7.5. The procedure: TG2 (0.70 μM) was reacted with IGF-I (25 μg/mL) and/or recombinant extracellular domain of IGF1R (25 μg/mL; commercially available from R&D Systems) for 1 hour in the presence of 1 mM CaCl2, pH 7.5. At this point, the reaction was stopped by the addition of SDS-PAGE loading buffer. Samples were run through a 4%-12% SDS-PAGE gel, transferred to a PVDF membrane and probed for IGF-I using a goat anti-human IGF-I primary (1:5000 dilution) and HRP-conjugated rabbit anti-goat secondary (1:10,000), and visualised using chemiluminescence.
For it to be able to do this, both IGF-I and the IGF1R would have to be transglutaminase substrates. Because TG2 catalyses the formation of an isopeptide bond which is essentially as stable as a peptide backbone bond, the complex formed will not be broken apart under reducing SDS-PAGE conditions (whereas disulfide and non-covalent interactions will be broken).
So, in this assay we reacted IGF-I and the soluble recombinant extracellular portion of the receptor with TG2, and probed for where IGF-I ended up using a standard Western blot approach. The “smoking gun” for a reaction would be staining for IGF-I appearing at a molecular weight corresponding to […]. […]

Data set [2] addresses T2, TG2. In words: Reaction of IGF-I with TG2, with or without the Gln-donor substrate glucagon. Format: biochemical. The text has this:
FIG. 4 Reaction of IGF-I with glucagon catalysed by TG2. Lane 1: IGF-I control; 2: IGF-I+TG2; 3: TG2 control; 4: Gn control; 5: IGF-I+Gn; 6: TG2+Gn; 7: TG2+Gn+IGF-I. (Gn=glucagon)
In order to confirm this finding, we repeated this experiment using TG2 rather than FXIII, and the known TG2 Gln-donor substrate glucagon (Gn) as a probe (FIG. 4). […] The large band >75 kDa in lane 2 is apparently due to the formation of covalent complexes between IGF-I and TG2 itself; polymerization of IGF-I is also evident. Reaction of IGF-I with Gn (lane 7) also produced polymeric species. A band of MW consistent with (IGF-I)1Gn1 is indicated by an arrow.

The target of data set [3] is insulin-like growth factor I (IGF-I), P05019.
insulin-like growth factor I (IGF-I), P05019, sequence (P05019 whole entry, looked up): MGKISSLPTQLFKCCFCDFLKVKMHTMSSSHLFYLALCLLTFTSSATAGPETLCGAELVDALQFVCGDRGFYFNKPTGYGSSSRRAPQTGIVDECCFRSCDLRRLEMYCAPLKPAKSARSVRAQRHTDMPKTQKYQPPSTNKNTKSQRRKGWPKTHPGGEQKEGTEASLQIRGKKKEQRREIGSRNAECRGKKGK

As for “IGF-I: insulin-like growth factor I, tested as transglutaminase substrate”, the “incorporation of IGF-I into TG substrate-functionalized PEG” value in the data set with FXIII is reported as “quantitatively incorporated into the Q-donor, but not the K-donor PEG”. In addition, in the data set with TG2 [1], the “crosslinking of IGF-I to IGF1R by TG2” value was “TG2 recognises sites on both the IGF1R and IGF-I, and is able to bind the two together”. Besides, in the data set with TG2 [2] (lane 2, IGF-I+TG2), the “products of reaction of IGF-I alone with TG2” value is recorded as “produced a series of bands corresponding to IGF-I oligomers”. Also, in the data set with TG2 [2] (lane 7, TG2+Gn+IGF-I), the “products of reaction of IGF-I with glucagon catalysed by TG2” value is reported as “produced a wide range of molecular weight species”.

B1: factor XIII (FXIII) (protein)
chain: SETSRTAFGGRRAVPPNNSNAAEDDLPTVELQGVVPRGVNLQEFLNVTSVHLFKERWDTNKVDHHTDKYENNKLIVRRGQSFYVQIDFSRPYDPRRDLFRVEYVIGRYPQENKGTYIPVPIVSELQSGKWGAKIVMREDRSVRLSIQSSPKCIVGKFRMYVAVWTPYGVLRTSRNPETDTYILFNPWCEDDAVYLDNEKEREEYVLNDIGVIFYGEVNDIKTRSWSYGQFEDGILDTCLYVMDRAQMDLSGRGNPIKVSRVGSAMVNAKDDEGVLVGSWDNIYAYGVPPSAWTGSVDILLEYRSSENPVRYGQCWVFAGVFNTFLRCLGIPARIVTNYFSAHDNDANLQMDIFLEEDGNVNSKLTKDSVWNYHCWNEAWMTRPDLPVGFGGWQAVDSTPQENSDGMYRCGPASVQAIKHGHVCFQFDAPFVFAEVNSDLIYITAKKDGTHVVENVDATHIGKLIVTKQIGGDGMMDITDTYKFQEGQEEERLALETALMYGAKKPLNTEGVMKSRSNVDMDFEVENAVLGKDFKLSITFRNNSHNRYTITAYLSANITFYTGVPKAEFKKETFDVTLEPLSFKKEAVLIQAGEYMGQLLEQASLHFFVTARINETRDVLAKQKSTVLTIPEIIIKVRGTQVVGSDMTVTVEFTNPLKETLRNVWVHLDGPGVTRPMKKMFREIRPNSTVQWEEVCRPWVSGHRKLIASMSSDSLRHVYGELDVQIQRRPSM
For B1, the “Western blot for IGF-I after 1 h reaction with FXIII and PEG carrying a glutamine- or lysine-donor TG substrate peptide” value in data set [3] is listed as “after 1 h IGF-I was quantitatively incorporated into the Q-donor, but not the K-donor PEG”.
